In this assay the target is rat prolactin receptor (PRLR) on Nb2 lymphoma cells (rat) (UniProt P05710). Nature of the assay: FACS on rat lymphoma cell line Nb2, IgG1.

As a reminder, the EC50 is the concentration giving half of the maximal effect. Read a high EC50 as a need for much substance.

B1: HE06.642 (antibody, IgG1, V domains shown)
VH: EVQLVESGGGLVQPGGSLRLSCAVSGFTFSSYGMSWVRQAPGKGLEWVATVSSGGTYTYYPDSVKGRFTISRDNSKNTLYLQMNSLRAEDTAVYYCARHRGNYYATYYYAMDYWGQGTLVTVSS
VL: DIVLTQSPDSLAVSLGERATINCKASKSVSTSGYTYMHWYQQKPGQPPKLLIYLASNRESGVPDRFSGSGSGTDFTLTISPVQAEDVATYYCQHSGELPPSFGQGTKLEIKR
With B1, the EC50 stood at 0.3 nM.

B2: 001-E06 (human IgG1) (antibody, V domains shown)
VH: QVELLESGGGLVQPGGSLRLSCAASGFTFSSYWMSWVRQAPGKGLEWVSSVSDTGTDTHYADSVKGRFTISRDNSKNTLYLQMNSLRAEDTAVYYCAKTPLAYSSGWYYFDYWGQGTLVTVSS
VL: DIVLTQPPSASGTPGQRVTISCSGSSSNIGSNTVNWYQQLPGTAPKLLIYRNYQRPSGVPDRFSGSKSGTSASLAISGLRSEDEADYYCQSYDSSLSGSVFGGGTKLTVLG
On to B2, for which the EC50 was 1.2 nM.

Source of the values: patent US20130171147A1.
